The assay addresses CoV OC43 spike glycoprotein (S) (human coronavirus OC43) (UniProt P36334). The assay can be described thus: […], running buffer TBS, […].

By stoichiometry N is commonly meant a count of units in the complex or per binding partner.

“CoV OC43 spike glycoprotein (S) (from UniProt P36334 14-1263) (natural protein)” displayed a stoichiometry N of 3.

The values above are taken from paper PMC12404239.
